Columns and labels:
Assay in all cases: ELISA
Conditions in all cases: both partners purified
[1] = biological target: recombinant soluble trimeric H7 HA of A/Netherlands/219/2003 H7N7 (NL03 H7) (Influenza A virus …, UniProt Q6VMK1, strain)
[2] = biological target: recombinant soluble trimeric H15 HA of A/shearwater/Western Australia/2576/1979 H15N9 (wtWA79 H15) (Influenza A virus A/wedge-tailed …, UniProt Q20ND8, strain)
[3] = biological target: recombinant soluble trimeric H15 HA of A/shearwater/Western Australia/2576/1979 H15N9 (Influenza A virus A/wedge-tailed …, UniProt Q20ND8, strain)
[4] = biological target: recombinant soluble trimeric H7 HA of A/Netherlands/219/2003 H7N7 (Influenza A virus …, UniProt Q6VMK1, strain)

B1: recombinant H7-235 IgG1 (rH7-235 IgG1) (antibody, V domains shown)
VH: QVQLVESGGGVVQPGESLRLSCAASGFAFRTYGMHWVRQAPGKGLEWVGVIWYDGSNKYYGDSVKGRFTISRDNSQNTLYLQMNSLRAEDTAVYYCARNGERWRVEDYYYGMDVWGQGTLVTVSS
VL: EIVMTQSPLSLPVTPGEPASISCRSSQSLLHSNAHNYLDWYLQKPGQSPQLLIYLGSNRASGVPDRFSGSGSGTDFTLKISRVEAEDVGIYYCMQALQTPITFGQGTRLEIK
notes: IgG1; also called rH7-235 mAb; mAb H7-235; copies: 2 + 2
B1: binds [1]; no binding [2].

B2: rH7-235 IgG1 (recombinant human monoclonal antibody H7-235) (antibody, V domains shown)
VH: QVQLVESGGGVVQPGESLRLSCAASGFAFRTYGMHWVRQAPGKGLEWVGVIWYDGSNKYYGDSVKGRFTISRDNSQNTLYLQMNSLRAEDTAVYYCARNGERWRVEDYYYGMDVWGQGTLVTVSS
VL: EIVMTQSPLSLPVTPGEPASISCRSSQSLLHSNAHNYLDWYLQKPGQSPQLLIYLGSNRASGVPDRFSGSGSGTDFTLKISRVEAEDVGIYYCMQALQTPITFGQGTRLEIK
notes: also called mAb H7-235; source: Expi293F, transient transfection, purified (MabSelect Sure)
B2: no binding (tested: >10,000 ng/mL) [3].

B3: rH7-235rev IgG1 (germline revertant form of rH7-235 IgG) (antibody, V domains shown)
VH: QVQLVESGGGVVQPGRSLRLSCAASGFTFSSYGMHWVRQAPGKGLEWVAVIWYDGSNKYYADSVKGRFTISRDNSKNTLYLQMNSLRAEDTAVYYCARNGERWRVEDYYYGMDVWGQGTLVTVSS
VL: not shown
B3: no binding (tested: >10,000 ng/mL) [4]; no binding (tested: >10,000 ng/mL) [3].

Reference: publication PMC12288907 (JCI Insight, 2025)
